How the values were obtained:
Bch1 = target: T1, Bch1 (S. cerevisiae (yeast), UniProt Q05029 1-724); assay: crystal structure
T1 sequence: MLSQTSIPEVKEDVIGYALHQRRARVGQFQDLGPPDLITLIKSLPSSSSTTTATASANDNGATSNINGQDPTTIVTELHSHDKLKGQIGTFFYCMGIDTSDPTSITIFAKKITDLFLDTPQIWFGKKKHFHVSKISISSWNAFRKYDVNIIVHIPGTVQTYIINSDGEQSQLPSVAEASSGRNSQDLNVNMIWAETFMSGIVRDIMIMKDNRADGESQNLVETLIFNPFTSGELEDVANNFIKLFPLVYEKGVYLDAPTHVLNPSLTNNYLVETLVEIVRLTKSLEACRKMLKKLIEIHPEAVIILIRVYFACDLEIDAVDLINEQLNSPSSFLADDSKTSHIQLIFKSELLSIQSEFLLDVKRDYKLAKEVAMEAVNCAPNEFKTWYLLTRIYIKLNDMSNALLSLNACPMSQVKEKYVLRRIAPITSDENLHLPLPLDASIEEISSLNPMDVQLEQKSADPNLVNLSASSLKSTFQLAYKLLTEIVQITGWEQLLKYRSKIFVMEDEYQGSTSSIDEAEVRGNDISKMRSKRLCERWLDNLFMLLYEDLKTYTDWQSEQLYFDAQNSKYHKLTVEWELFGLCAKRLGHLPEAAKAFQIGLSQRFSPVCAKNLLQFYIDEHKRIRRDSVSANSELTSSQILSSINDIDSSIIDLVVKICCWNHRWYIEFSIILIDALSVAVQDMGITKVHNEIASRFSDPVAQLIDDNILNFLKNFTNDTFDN

crystal structure = target: the molecule itself; assay: crystal structure
[1] = target: T2, Chs5(1-299)/Bch1-N692I exomer complex (S. cerevisiae (yeast), UniProt Q12114 1-299; Q05029 1-724, N692I); assay: co-sedimentation
T2 sequence 1: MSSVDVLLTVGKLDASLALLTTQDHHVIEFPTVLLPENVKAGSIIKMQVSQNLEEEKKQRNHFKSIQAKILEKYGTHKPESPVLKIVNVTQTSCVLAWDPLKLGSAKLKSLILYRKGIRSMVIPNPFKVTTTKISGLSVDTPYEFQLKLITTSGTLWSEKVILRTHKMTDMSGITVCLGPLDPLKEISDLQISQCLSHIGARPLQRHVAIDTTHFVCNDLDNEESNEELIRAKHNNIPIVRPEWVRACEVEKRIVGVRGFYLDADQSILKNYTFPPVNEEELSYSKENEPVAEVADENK
T2 sequence 2: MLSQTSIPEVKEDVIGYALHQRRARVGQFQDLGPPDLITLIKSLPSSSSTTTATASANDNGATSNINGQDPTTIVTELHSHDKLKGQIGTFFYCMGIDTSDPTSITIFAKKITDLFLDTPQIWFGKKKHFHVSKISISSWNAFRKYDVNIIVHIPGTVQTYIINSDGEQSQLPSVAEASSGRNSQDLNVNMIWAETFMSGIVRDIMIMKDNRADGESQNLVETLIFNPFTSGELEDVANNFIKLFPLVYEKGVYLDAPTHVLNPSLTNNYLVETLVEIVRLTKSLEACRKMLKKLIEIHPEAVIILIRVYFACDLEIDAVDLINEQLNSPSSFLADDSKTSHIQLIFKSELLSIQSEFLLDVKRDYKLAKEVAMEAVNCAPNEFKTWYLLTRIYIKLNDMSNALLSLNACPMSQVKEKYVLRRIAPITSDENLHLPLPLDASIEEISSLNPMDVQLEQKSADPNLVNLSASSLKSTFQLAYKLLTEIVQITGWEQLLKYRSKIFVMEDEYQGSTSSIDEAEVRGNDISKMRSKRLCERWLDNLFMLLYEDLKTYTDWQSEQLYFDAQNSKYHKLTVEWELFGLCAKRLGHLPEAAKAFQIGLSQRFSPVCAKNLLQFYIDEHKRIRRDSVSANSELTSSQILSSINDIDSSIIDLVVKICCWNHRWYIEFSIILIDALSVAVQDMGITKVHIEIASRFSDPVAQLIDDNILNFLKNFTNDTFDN

[2] = target: T3, Chs5(1-299)-T92Y/Bch1-N692I exomer complex (S. cerevisiae (yeast), UniProt Q12114 1-299; Q05029 1-724, T92Y | N692I); assay: co-sedimentation
T3 sequence 1: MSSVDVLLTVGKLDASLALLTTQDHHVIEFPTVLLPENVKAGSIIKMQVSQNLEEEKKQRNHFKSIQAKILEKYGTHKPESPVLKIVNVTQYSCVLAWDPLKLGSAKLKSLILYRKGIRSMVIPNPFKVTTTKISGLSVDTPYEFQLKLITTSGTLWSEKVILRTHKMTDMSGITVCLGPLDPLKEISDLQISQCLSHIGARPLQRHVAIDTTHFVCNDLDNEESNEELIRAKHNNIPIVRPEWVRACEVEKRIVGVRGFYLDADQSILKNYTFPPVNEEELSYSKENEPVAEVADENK
T3 sequence 2: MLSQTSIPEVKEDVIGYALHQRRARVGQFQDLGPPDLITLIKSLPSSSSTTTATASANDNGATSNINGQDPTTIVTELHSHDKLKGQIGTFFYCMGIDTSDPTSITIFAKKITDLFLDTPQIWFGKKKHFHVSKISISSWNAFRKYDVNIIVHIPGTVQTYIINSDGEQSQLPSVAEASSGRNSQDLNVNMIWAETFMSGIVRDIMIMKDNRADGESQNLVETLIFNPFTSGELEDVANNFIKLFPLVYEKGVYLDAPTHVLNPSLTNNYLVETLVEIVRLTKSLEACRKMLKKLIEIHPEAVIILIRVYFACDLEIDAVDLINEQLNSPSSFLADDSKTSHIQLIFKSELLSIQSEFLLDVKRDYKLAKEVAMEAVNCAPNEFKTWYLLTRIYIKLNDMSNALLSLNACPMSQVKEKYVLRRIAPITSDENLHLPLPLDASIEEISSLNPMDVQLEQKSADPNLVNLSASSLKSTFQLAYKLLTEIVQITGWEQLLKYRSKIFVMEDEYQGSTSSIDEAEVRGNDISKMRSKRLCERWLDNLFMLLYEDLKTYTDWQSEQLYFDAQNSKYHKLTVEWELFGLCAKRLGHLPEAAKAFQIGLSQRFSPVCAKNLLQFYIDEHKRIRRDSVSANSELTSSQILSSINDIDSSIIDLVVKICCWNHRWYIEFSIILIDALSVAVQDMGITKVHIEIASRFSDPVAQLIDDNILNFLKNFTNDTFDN

[3] = target: T4, Chs5(1-299)/Chs6 exomer complex (S. cerevisiae (yeast), UniProt Q12114 1-299; P40955 1-746); assay: co-sedimentation
T4 sequence (looked up) 1: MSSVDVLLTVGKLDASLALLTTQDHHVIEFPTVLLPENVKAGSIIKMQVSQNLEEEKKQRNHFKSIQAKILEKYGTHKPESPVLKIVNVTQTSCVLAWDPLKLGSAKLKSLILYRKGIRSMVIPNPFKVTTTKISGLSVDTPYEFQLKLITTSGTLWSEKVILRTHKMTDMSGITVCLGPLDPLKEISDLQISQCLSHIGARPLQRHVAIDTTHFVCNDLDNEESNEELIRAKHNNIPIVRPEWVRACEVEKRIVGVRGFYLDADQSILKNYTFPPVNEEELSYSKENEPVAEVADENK
T4 sequence (looked up) 2: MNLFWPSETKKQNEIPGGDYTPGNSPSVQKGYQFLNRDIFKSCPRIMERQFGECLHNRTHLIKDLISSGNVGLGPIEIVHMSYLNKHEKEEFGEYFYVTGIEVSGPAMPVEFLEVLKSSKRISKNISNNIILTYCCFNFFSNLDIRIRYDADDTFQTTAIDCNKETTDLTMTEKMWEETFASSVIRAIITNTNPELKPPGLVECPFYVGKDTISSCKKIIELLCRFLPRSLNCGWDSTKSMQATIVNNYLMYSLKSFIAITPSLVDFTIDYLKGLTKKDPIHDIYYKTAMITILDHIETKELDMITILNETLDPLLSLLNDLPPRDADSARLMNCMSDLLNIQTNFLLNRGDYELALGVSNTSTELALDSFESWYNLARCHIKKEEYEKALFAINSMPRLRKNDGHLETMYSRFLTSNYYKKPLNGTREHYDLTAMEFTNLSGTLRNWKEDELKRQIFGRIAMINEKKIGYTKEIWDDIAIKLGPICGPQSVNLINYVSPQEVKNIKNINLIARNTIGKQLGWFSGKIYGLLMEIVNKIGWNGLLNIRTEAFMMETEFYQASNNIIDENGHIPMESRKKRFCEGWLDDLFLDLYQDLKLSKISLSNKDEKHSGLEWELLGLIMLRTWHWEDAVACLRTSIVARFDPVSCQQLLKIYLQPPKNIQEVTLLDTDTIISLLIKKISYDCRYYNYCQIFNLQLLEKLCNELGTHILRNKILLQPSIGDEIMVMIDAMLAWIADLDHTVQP

[4] = target: T5, Chs5(1-299)/Bch1 exomer complex (S. cerevisiae (yeast), UniProt Q12114 1-299; Q05029 1-724); assay: co-sedimentation
T5 sequence 1: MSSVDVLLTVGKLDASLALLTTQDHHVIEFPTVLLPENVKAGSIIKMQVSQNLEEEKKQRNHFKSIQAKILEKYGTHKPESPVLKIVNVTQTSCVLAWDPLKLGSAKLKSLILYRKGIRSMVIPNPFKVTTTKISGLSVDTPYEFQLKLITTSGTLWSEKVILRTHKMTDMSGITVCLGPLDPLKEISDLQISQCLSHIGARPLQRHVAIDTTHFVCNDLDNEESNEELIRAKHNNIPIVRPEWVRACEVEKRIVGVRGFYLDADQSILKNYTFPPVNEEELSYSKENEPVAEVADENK
T5 sequence 2: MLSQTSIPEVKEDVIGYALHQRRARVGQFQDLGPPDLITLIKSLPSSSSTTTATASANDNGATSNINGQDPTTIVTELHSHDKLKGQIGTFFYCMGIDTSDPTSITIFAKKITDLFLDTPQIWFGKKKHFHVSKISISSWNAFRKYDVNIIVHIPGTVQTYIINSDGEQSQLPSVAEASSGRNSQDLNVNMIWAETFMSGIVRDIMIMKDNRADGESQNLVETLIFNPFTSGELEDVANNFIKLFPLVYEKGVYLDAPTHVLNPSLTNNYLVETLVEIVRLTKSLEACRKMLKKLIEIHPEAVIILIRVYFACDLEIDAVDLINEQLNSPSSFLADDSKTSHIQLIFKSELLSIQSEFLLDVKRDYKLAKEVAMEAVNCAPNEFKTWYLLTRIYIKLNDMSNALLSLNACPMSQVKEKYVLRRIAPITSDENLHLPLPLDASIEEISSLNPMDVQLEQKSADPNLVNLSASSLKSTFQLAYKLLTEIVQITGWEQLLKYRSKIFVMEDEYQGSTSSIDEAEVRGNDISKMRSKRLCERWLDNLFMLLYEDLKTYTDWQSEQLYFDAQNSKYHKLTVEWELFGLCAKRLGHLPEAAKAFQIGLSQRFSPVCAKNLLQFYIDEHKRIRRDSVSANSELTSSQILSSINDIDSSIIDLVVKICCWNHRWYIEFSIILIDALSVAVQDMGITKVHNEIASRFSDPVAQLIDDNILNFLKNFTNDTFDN

[5] = target: T6, Chs5(1-299)-T92Y/Bch1 exomer complex (S. cerevisiae (yeast), UniProt Q12114 1-299; Q05029 1-724, T92Y); assay: co-sedimentation
T6 sequence 1: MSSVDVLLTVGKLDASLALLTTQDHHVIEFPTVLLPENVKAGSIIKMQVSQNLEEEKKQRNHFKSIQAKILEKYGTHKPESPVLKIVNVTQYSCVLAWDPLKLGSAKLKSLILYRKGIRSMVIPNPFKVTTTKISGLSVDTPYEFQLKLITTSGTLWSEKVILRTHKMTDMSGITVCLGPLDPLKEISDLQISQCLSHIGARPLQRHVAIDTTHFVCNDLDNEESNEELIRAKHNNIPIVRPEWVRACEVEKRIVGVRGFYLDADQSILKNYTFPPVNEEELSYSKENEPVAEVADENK
T6 sequence 2: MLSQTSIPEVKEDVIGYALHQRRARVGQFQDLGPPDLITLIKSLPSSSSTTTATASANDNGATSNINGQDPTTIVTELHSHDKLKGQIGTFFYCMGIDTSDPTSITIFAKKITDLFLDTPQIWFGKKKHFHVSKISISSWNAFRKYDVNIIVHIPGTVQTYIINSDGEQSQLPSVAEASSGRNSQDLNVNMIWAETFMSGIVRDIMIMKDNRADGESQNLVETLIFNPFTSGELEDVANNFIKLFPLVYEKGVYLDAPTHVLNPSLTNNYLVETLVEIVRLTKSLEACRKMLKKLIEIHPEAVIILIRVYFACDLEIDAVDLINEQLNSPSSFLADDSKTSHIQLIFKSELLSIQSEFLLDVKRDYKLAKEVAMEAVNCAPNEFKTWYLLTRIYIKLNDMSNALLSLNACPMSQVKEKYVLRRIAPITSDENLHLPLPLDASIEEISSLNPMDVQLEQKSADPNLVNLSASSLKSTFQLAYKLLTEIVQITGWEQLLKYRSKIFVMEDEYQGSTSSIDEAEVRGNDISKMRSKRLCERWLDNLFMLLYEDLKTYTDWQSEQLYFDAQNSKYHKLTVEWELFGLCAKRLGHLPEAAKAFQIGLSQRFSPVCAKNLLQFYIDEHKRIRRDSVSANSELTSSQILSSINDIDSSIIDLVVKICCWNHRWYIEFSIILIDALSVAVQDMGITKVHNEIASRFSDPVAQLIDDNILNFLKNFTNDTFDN

Measured: binding result

B1: Chs5 (residues 1-299) (domain or fragment, S. cerevisiae (yeast), UniProt Q12114 1-299, looked up)
chain: MSSVDVLLTVGKLDASLALLTTQDHHVIEFPTVLLPENVKAGSIIKMQVSQNLEEEKKQRNHFKSIQAKILEKYGTHKPESPVLKIVNVTQTSCVLAWDPLKLGSAKLKSLILYRKGIRSMVIPNPFKVTTTKISGLSVDTPYEFQLKLITTSGTLWSEKVILRTHKMTDMSGITVCLGPLDPLKEISDLQISQCLSHIGARPLQRHVAIDTTHFVCNDLDNEESNEELIRAKHNNIPIVRPEWVRACEVEKRIVGVRGFYLDADQSILKNYTFPPVNEEELSYSKENEPVAEVADENK
binds: Bch1 | crystal structure

B2: myristoylated Arf1 (wild type), GTP-bound, anchored on liposomes (natural protein, yeast, UniProt P11076 1-181, looked up)
chain: MGLFASKLFSNLFGNKEMRILMVGLDGAGKTTVLYKLKLGEVITTIPTIGFNVETVQYKNISFTVWDVGGQDRIRSLWRHYYRNTEGVIFVVDSNDRSRIGEAREVMQRMLNEDELRNAAWLVFANKQDLPEAMSAAEITEKLGLHSIRNRPWFIQATCATSGEGLYEGLEWLSNSLKNST
modifications: myristoylated
not listed: Bch1 | crystal structure
binds: all other assays above

From article PMC4159615 (Developmental cell, 2014)
